Experiment [1] addresses T1, Recombinant Human GFRα-1/GDNF Rα-1 Fc Chimera (human, UniProt P56159 25-429).
T1 construct: Purchased Fc chimera; It was captured on protein A in Biacore and coated on the plate in ELISA; also called GFRα1-Fc; recombinant human GFRα1-Fc chimera, carrier-free; not shown: Fc part of a purchased Fc chimera
T1 sequence (looked up): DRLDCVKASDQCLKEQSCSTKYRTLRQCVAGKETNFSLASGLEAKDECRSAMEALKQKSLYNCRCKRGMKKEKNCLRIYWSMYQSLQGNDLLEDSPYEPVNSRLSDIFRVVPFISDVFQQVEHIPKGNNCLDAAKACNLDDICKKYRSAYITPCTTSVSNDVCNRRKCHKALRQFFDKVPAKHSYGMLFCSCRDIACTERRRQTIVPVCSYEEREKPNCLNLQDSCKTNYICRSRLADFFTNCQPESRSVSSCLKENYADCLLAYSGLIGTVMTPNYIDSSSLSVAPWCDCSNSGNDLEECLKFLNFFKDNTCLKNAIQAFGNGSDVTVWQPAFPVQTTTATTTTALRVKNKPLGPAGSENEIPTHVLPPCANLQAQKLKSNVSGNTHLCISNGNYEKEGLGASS
Briefly: Biacore (SPR), GFRα-1; 4 C sample of the 4-week stability comparison. (In general: SPR reads the build-up and loss of mass on a sensor chip optically.)

Experiment [2] concerns the target T1, Recombinant Human GFRα-1/GDNF Rα-1 Fc …. Put plainly: ELISA, plate-bound human GFRα1-Fc; lower end of the 95% confidence range, n = 14. The method, then:
(§1) Each well of a 96-well plate (Greiner 655081 Immunobind ELISA plates) is coated with 70 μl of human GFRα1 (recombinant human GFRα1-Fc chimera, carrier-free) at 1 μg/ml in carbonate buffer, pH 9.6. If an irrelevant receptor is coated, it is an irrelevant Fc chimera and is coated at the same concentration as GFRα1. The plates are sealed and incubated at 4° C. overnight. The wells are aspirated and washed twice with washing buffer (20 mM Tris (hydroxymethyl) aminomethane, pH 7.4, 0.15 M NaCl, 0.1% Tween-20), using an automatic plate washer. The plates are blocked with 200 μl blocking buffer per well (3% Carnation Instant milk in the above washing buffer) for at least 1 hour at room temperature. Plates are washed twice with washing buffer. […]
(§2) A 50 μl aliquot of horseradish peroxidase-conjugated streptavidin (Jackson ImmunoResearch, catalog #016-030-084), diluted 1:1000 in blocking buffer, is added to each well and incubated for 20-30 minutes at room temperature. […] The absorbance of the wells is read at 490 nm on a Molecular Devices SpectraMax250 plate reader. The average absorbance for the triplicate wells for each condition are determined, and the resulting values are processed for EC₅₀ calculation with Graph Pad Prism software to provide a 95% confidence range.
(In general: In an ELISA, binding on a coated surface is turned into a signal by an enzyme label.)

Experiment [3] has the same target. Put plainly: ELISA, plate-bound human GFRα1-Fc; upper end of the 95% confidence range, n = 14. The procedure: as §1, §2
The target in experiment [4] is T2, Recombinant Human GFRα-2/GDNF Rα-2 Fc Chimera (human, UniProt O00451 22-441).
T2 construct: Purchased Fc chimera; not shown: Fc part of a purchased Fc chimera
T2 sequence (looked up): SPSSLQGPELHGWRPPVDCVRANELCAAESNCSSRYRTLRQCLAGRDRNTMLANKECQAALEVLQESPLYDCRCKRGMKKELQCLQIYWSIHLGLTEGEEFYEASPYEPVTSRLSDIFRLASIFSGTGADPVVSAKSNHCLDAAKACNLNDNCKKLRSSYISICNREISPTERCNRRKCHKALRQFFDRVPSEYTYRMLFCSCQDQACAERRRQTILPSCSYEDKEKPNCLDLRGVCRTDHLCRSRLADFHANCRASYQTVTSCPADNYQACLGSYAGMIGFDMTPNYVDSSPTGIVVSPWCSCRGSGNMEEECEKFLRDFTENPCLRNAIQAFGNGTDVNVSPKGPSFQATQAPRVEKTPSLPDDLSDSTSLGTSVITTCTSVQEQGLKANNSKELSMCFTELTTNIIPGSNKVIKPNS
Briefly: SPR (Biacore 2000), human GFRα2-Fc captured on protein A, GDNFv as analyte, 1:1 Langmuir, 25 C. The method, then:
A Biacore® 2000 instrument is used to measure the binding kinetics of GDNFv to human and rat GDNF family receptors (GFRα1 and GFRα2). Measurements are performed at 25° C. Samples are dissolved in HBS-EP buffer (150 mM sodium chloride, 3 mM EDTA, 0.005% (w/v) surfactant P-20, pH 7.4). Protein A, Staphylococcus aureus is immobilized on flow cells 1 to 4 of a CM4 sensor chip (GE Healthcare #BR-1005-39) at a level of ˜200 response units (RUs) using amine coupling chemistry to capture GFR Fc chimera (Recombinant Human GFRα-1/GDNF Rα-1 Fc Chimera; Recombinant Human GFRα-2/GDNF Rα-2 Fc Chimera; Recombinant Rat GFRα-1/GDNF Rα-1 Fc Chimera; Recombinant Mouse GFRα-2/GDNF Rα-2 Fc Chimera).
Binding is evaluated using multiple cycles. Each cycle consists of the following steps: 1) injection of about 10 μL of GFR at a concentration of ˜1.0 μg/mL and a flow rate of 10 μL/min., aiming at a capture of 120-150 RUs; 2) injection of 250 μL of GDNFv at a flow rate of 50 μL/min., in a final concentration rage between 10 nM and 0.04 nM followed by […]. for dissociation; and 3) regeneration using about 30 μL of 10 mM glycine hydrochloride, pH 1.5. Association and dissociation rates for each cycle are evaluated using a “1:1 (Langmuir) binding” model in the BIAevaluation software, version 4.1.

For experiment [5], the target named is T1, Recombinant Human GFRα-1/GDNF Rα-1 Fc …. Put plainly: ELISA, plate-bound human GFRα1-Fc; lower end of the 95% confidence range, n = 4. The procedure: as §1, §2

A word on the Kd: it is the constant that tells how readily two partners part at equilibrium. As a reminder, the EC50 is the concentration that produces a half-maximal response. In general, koff refers to the rate constant with which the complex falls apart. A word on the kon: it is a measure of how fast the partners come together.

B1: CHO-Δ31-GDNF (SEQ ID NO: 8) (ligand)
chain: RGQRGKNRGCVLTAIHLNVTDLGLGYETKEELIFRYCSGSCDAAETTYDKILKNLSRNRRLVSDKVGQACCRPIAFDDDLSFLDDNLVYHILRKHSAKRCGCI
modifications: N-glycosylated at N49 (numbering of mature GDNF)
notes: Expressed in CHO cells; also called CHO-Δ31-GDNFv; WT CHO Δ31-GDNFv
For B1, in experiment [1], the Kd was determined as 0.029 nM. Besides, the EC50 in experiment [2] fell in the range of 0.3 to 0.6 nM. Further, the EC50 in experiment [3] was in the range of 0.3 to 0.6 nM. In experiment [4], the Kd was found to be 0.047 nM, the koff turned out to be 0.00025 s⁻¹ and the kon is 5.3e+06 M⁻¹ s⁻¹.

B2: CHO-Δ31-N38Q-D95E-GDNF (SEQ ID NO: 9) (ligand)
chain: RGQRGKQRGCVLTAIHLNVTDLGLGYETKEELIFRYCSGSCDAAETTYDKILKNLSRNRRLVSEKVGQACCRPIAFDDDLSFLDDNLVYHILRKHSAKRCGCI
modifications: N-glycosylated at N49 (numbering of mature GDNF)
notes: Expressed in CHO cells; also called CHO-Δ31-N38Q-D95E-GDNFv; GDNF variant 2
For the molecule B2, in experiment [1], the Kd is 0.03 nM. Also, the EC50 in experiment [5] was in the range of 0.3 to 1.9 nM. In experiment [4], the equilibrium dissociation constant (Kd) came to 0.047 nM, the koff amounted to 0.00035 s⁻¹ and the kon came out at 7.6e+06 M⁻¹ s⁻¹.

(Values after patent US20130324474A1 (Eli Lilly, published 2013).)
